US20180237508A1

Columns and labels:
[1] = molecular target: Human cytokeratin-8 (CK8) at the cell surface of human cancer cell lines (human) (UniProt P05787); experiment: flow cytometry, HCT116-/- cells, MAb 5 ug/mL
[2] = molecular target: Human cytokeratin-8 (CK8) at the cell surface of human cancer cell lines (human) (UniProt P05787); experiment: flow cytometry, MCF-7 cells, MAb 5 ug/mL
[3] = molecular target: Human cytokeratin-8 (CK8) at the cell surface of human cancer cell lines (human) (UniProt P05787); experiment: flow cytometry, HT29 cells, MAb 5 ug/mL
[4] = molecular target: Human cytokeratin-8 (CK8) at the cell surface of human cancer cell lines (human) (UniProt P05787); experiment: flow cytometry, ISRECO-3 cells, MAb 5 ug/mL
[5] = molecular target: Human cytokeratin-8 (CK8) at the cell surface of human cancer cell lines (human) (UniProt P05787); experiment: flow cytometry, HCT116 +/+ cells, MAb 5 ug/mL
[6] = molecular target: Human cytokeratin-8 (CK8) at the cell surface of human cancer cell lines (human) (UniProt P05787); experiment: flow cytometry, ISRECO-1 cells, MAb 5 ug/mL
[7] = molecular target: Human cytokeratin-8 (CK8) at the cell surface of human cancer cell lines (human) (UniProt P05787); experiment: flow cytometry, ISRECO-2 cells, MAb 5 ug/mL

Sequence of Human cytokeratin-8 (CK8) at the cell surface of human cancer cell lines (human) (P05787 whole entry): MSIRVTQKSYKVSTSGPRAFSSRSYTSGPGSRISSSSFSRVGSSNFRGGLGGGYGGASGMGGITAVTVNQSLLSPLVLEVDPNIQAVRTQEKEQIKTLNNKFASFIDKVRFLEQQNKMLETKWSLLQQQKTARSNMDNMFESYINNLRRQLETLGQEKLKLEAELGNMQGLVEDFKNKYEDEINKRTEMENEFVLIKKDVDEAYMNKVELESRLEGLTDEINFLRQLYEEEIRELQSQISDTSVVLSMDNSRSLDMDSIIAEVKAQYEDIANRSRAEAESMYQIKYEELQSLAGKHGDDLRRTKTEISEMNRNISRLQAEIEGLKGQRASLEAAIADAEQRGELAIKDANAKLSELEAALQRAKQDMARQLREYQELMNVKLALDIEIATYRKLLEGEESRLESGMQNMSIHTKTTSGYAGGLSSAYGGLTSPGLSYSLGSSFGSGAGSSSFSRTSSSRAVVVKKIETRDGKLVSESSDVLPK

Row | % (labelled cells) [1] [%] | IFM [1] | % (labelled cells) [2] [%] | IFM [2] | % (labelled cells) [3] [%] | IFM [3] | % (labelled cells) [4] [%] | IFM [4] | % (labelled cells) [5] [%] | IFM [5] | % (labelled cells) [6] [%] | IFM [6] | % (labelled cells) [7] [%] | IFM [7] | Substance
1 | 38 | 530 | 52 | 462 | 30 | 418 | 41 | 402 | 35 | 554 | 45 | 562 | 23 | 424 | 1E8 antibody (commercially available antibody ab28050, abcam)
2 | 28 | 517 | 66 | 476 | 17 | 497 | 33 | 541 | 29 | 527 | 50 | 553 | 26 | 473 | M20 antibody (commercially available antibody C5301, Sigma)
